Measurements reported in the supplement of paper PMC10567573.

B1: TBX5 (parent)
chain: FHEVGTEMIITKAGRRMFPSYKVK

Variants of: B1
Test: protein stability index of a GFP-peptide fusion (GPS, HEK-293T) (PSI 1-6); higher = more stable
Conditions: c terminus: a fixed tail appended
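Further: lentivirally expressed fusions sorted by FACS into six bins by GFP to DsRed ratio, PSI derived from sequencing read proportions per bin multiplied by bin number.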

Row | Variant | protein stability index
1 | FHEVGTEMIIIKAGRRMFPSYKVK | 1.19
2 | FHEVGTEMIIEKAGRRMFPSYKVK | 2.36
3 | FHEVGTEMIIKKAGRRMFPSYKVK | 2.59
4 | FHEVGTEMIIVKAGRRMFPSYKVK | 1.76
5 | FHEVGTEMIIRKAGRRMFPSYKVK | 2.47
6 | FHEVGTEMIICKAGRRMFPSYKVK | 2.44
7 | FHEVGTEMIIAKAGRRMFPSYKVK | 3.29
8 | FHEVGTEMIIPKAGRRMFPSYKVK | 2.28
9 | FHEVGTEMIIFKAGRRMFPSYKVK | 1.71
10 | FHEVGTEMIIQKAGRRMFPSYKVK | 1.88
11 | FHEVGTEMIIMKAGRRMFPSYKVK | 1.53
12 | FHEVGTEMIISKAGRRMFPSYKVK | 3.49
13 | FHEVGTEMIIDKAGRRMFPSYKVK | 2.13
14 | FHEVGTEMIIYKAGRRMFPSYKVK | 1.02
15 | FHEVGTEMIILKAGRRMFPSYKVK | 2.14
16 | FHEVGTEMIINKAGRRMFPSYKVK | 2.46
17 | FHEVGTEKIITKAGRRMFPSYKVK | 2.68
18 | FHEVGTEVIITKAGRRMFPSYKVK | 1.43
19 | FHEVGTEAIITKAGRRMFPSYKVK | 2.27
20 | FHEVGTEWIITKAGRRMFPSYKVK | 2.07
21 | FHEVGTERIITKAGRRMFPSYKVK | 1.79
22 | FHEVGTEPIITKAGRRMFPSYKVK | 2.08
23 | FHEVGTEQIITKAGRRMFPSYKVK | 2.06
24 | FHEVGTEGIITKAGRRMFPSYKVK | 1.93

Row | Variant | protein stability index
25 | FHEVGTESIITKAGRRMFPSYKVK | 2.34
26 | FHEVGTEFIITKAGRRMFPSYKVK | 1.59
27 | FHEVGTELIITKAGRRMFPSYKVK | 1.66
28 | FHEVGTECIITKAGRRMFPSYKVK | 2.09
29 | FHEVGTEEIITKAGRRMFPSYKVK | 3.03
30 | FHEVGTEHIITKAGRRMFPSYKVK | 2.33
31 | FHEVGTEDIITKAGRRMFPSYKVK | 3.29
32 | FHEVGTETIITKAGRRMFPSYKVK | 2.2
33 | FHEVGTEYIITKAGRRMFPSYKVK | 1.87
34 | FHEVGTEIIITKAGRRMFPSYKVK | 1.33
35 | FHEVGTENIITKAGRRMFPSYKVK | 2.38
36 | FHEVGTEMIITKAGRGMFPSYKVK | 2.43
37 | FHEVGTEMIITKAGRAMFPSYKVK | 1.91
38 | FHEVGTEMIITKAGREMFPSYKVK | 2.38
39 | FHEVGTEMIITKAGRQMFPSYKVK | 1.85
40 | FHEVGTEMIITKAGRNMFPSYKVK | 2.54
41 | FHEVGTEMIITKAGRKMFPSYKVK | 2.65
42 | FHEVGTEMIITKAGRCMFPSYKVK | 1.59
43 | FHEVGTEMIITKAGRIMFPSYKVK | 1.81
44 | FHEVGTEMIITKAGRDMFPSYKVK | 2.15
45 | FHEVGTEMIITKAGRLMFPSYKVK | 2.09
46 | FHEVGTEMIITKAGRFMFPSYKVK | 2.31
47 | FHEVGTEMIITKAGRMMFPSYKVK | 1.96
48 | FHEVGTEMIITKAGRPMFPSYKVK | 2.11

Row | Variant | protein stability index
49 | FHEVGTEMIITKAGRHMFPSYKVK | 2.02
50 | FHEVGTEMIITKHGRRMFPSYKVK | 2.11
51 | FHEVGTEMIITKNGRRMFPSYKVK | 2.27
52 | FHEVGTEMIITKTGRRMFPSYKVK | 1.68
53 | FHEVGTEMIITKWGRRMFPSYKVK | 1.93
54 | FHEVGTEMIITKDGRRMFPSYKVK | 2.57
55 | FHEVGTEMIITKGGRRMFPSYKVK | 1.84
56 | FHEVGTEMIITKCGRRMFPSYKVK | 2.03
57 | FHEVGTEMIITKQGRRMFPSYKVK | 2.65
58 | FHEVGTEMIITKEGRRMFPSYKVK | 2.68
59 | FHEVGTEMIITKMGRRMFPSYKVK | 1.3
60 | FHEVGTEMIITKLGRRMFPSYKVK | 2.61
61 | FHEVGTEMIITKVGRRMFPSYKVK | 2.02
62 | FHEVGTEMIITKRGRRMFPSYKVK | 2.65
63 | FHEVGTEMIITKKGRRMFPSYKVK | 2.44
64 | FHEVGTEMIITKPGRRMFPSYKVK | 1.93
65 | FHEVGTEMIITKFGRRMFPSYKVK | 1.97
66 | FHEVGTEMIITKYGRRMFPSYKVK | 1.55
67 | FHEVGTEMIITKSGRRMFPSYKVK | 1.87
68 | FHEVGTEMIITEAGRRMFPSYKVK | 1.83
69 | FHEVGTEMIITYAGRRMFPSYKVK | 2.91
70 | FHEVGTEMIITHAGRRMFPSYKVK | 1.8
71 | FHEVGTEMIITIAGRRMFPSYKVK | 1.6
72 | FHEVGTEMIITCAGRRMFPSYKVK | 1.31

Row | Variant | protein stability index
73 | FHEVGTEMIITSAGRRMFPSYKVK | 2.51
74 | FHEVGTEMIITTAGRRMFPSYKVK | 1.78
75 | FHEVGTEMIITFAGRRMFPSYKVK | 2.76
76 | FHEVGTEMIITQAGRRMFPSYKVK | 1.73
77 | FHEVGTEMIITGAGRRMFPSYKVK | 2.1
78 | FHEVGTEMIITPAGRRMFPSYKVK | 2.12
79 | FHEVGTEMIITVAGRRMFPSYKVK | 2.68
80 | FHEVGTEMIITRAGRRMFPSYKVK | 2.02
81 | FHEVGTEMIITDAGRRMFPSYKVK | 2.57
82 | FHEVGTEMIITAAGRRMFPSYKVK | 2.52
83 | FHEVGTEMIITLAGRRMFPSYKVK | 2.81
84 | FHEVGTEMIITNAGRRMFPSYKVK | 2.1
85 | FHEVGTMMIITKAGRRMFPSYKVK | 1.49
86 | FHEVGTQMIITKAGRRMFPSYKVK | 1.81
87 | FHEVGTLMIITKAGRRMFPSYKVK | 1.93
88 | FHEVGTSMIITKAGRRMFPSYKVK | 1.66
89 | FHEVGTGMIITKAGRRMFPSYKVK | 2.98
90 | FHEVGTVMIITKAGRRMFPSYKVK | 1.84
91 | FHEVGTPMIITKAGRRMFPSYKVK | 1.71
92 | FHEVGTDMIITKAGRRMFPSYKVK | 1.81
93 | FHEVGTNMIITKAGRRMFPSYKVK | 1.88
94 | FHEVGTCMIITKAGRRMFPSYKVK | 2.07
95 | FHEVGTHMIITKAGRRMFPSYKVK | 1.55
96 | FHEVGTKMIITKAGRRMFPSYKVK | 1.92

Row | Variant | protein stability index
97 | FHEVGTAMIITKAGRRMFPSYKVK | 2.82
98 | FHEVGTTMIITKAGRRMFPSYKVK | 1.87
99 | FHEVGTWMIITKAGRRMFPSYKVK | 2.06
100 | FHEVGTEMIITKAGNRMFPSYKVK | 2.29
101 | FHEVGTEMIITKAGMRMFPSYKVK | 1.59
102 | FHEVGTEMIITKAGWRMFPSYKVK | 1.53
103 | FHEVGTEMIITKAGERMFPSYKVK | 1.74
104 | FHEVGTEMIITKAGGRMFPSYKVK | 1.77
105 | FHEVGTEMIITKAGSRMFPSYKVK | 1.69
106 | FHEVGTEMIITKAGVRMFPSYKVK | 1.72
107 | FHEVGTEMIITKAGDRMFPSYKVK | 2.71
108 | FHEVGTEMIITKAGPRMFPSYKVK | 1.87
109 | FHEVGTEMIITKAGYRMFPSYKVK | 2.58
110 | FHEVGTEMIITKAGIRMFPSYKVK | 1.83
111 | FHEVGTEMIITKAGFRMFPSYKVK | 1.91
112 | FHEVGTEMIITKAGLRMFPSYKVK | 1.81
113 | FHEVGTEMIITKAGHRMFPSYKVK | 2.14
114 | FHEVGTEMIITKAGARMFPSYKVK | 2.18
115 | FHEVGTEMIITKAGQRMFPSYKVK | 2.2
116 | FHEVGTEMIITKAGCRMFPSYKVK | 2.63
117 | FHEVGTEMIITKAGTRMFPSYKVK | 2.21
118 | FHEVGTEMIITKAGKRMFPSYKVK | 1.92
119 | FHEVGSEMIITKAGRRMFPSYKVK | 2.21
120 | FHEVGGEMIITKAGRRMFPSYKVK | 2.9

Row | Variant | protein stability index
121 | FHEVGEEMIITKAGRRMFPSYKVK | 3.65
122 | FHEVGKEMIITKAGRRMFPSYKVK | 2.23
123 | FHEVGQEMIITKAGRRMFPSYKVK | 2.2
124 | FHEVGLEMIITKAGRRMFPSYKVK | 3.1
125 | FHEVGMEMIITKAGRRMFPSYKVK | 1.37
126 | FHEVGVEMIITKAGRRMFPSYKVK | 2.07
127 | FHEVGCEMIITKAGRRMFPSYKVK | 1.52
128 | FHEVGPEMIITKAGRRMFPSYKVK | 1.3
129 | FHEVGNEMIITKAGRRMFPSYKVK | 1.68
130 | FHEVGWEMIITKAGRRMFPSYKVK | 2.13
131 | FHEVGYEMIITKAGRRMFPSYKVK | 1.56
132 | FHEVGDEMIITKAGRRMFPSYKVK | 2.25
133 | FHEVGFEMIITKAGRRMFPSYKVK | 2.76
134 | FHEVGHEMIITKAGRRMFPSYKVK | 2.01
135 | FHEVGREMIITKAGRRMFPSYKVK | 1.62
136 | FHEVGTEMIITKAFRRMFPSYKVK | 2.41
137 | FHEVGTEMIITKAQRRMFPSYKVK | 2.17
138 | FHEVGTEMIITKAPRRMFPSYKVK | 2.86
139 | FHEVGTEMIITKAWRRMFPSYKVK | 1.95
140 | FHEVGTEMIITKAERRMFPSYKVK | 2
141 | FHEVGTEMIITKADRRMFPSYKVK | 1.48
142 | FHEVGTEMIITKAYRRMFPSYKVK | 2.17
143 | FHEVGTEMIITKARRRMFPSYKVK | 1.64
144 | FHEVGTEMIITKATRRMFPSYKVK | 2.42

Row | Variant | protein stability index
145 | FHEVGTEMIITKAHRRMFPSYKVK | 1.73
146 | FHEVGTEMIITKAARRMFPSYKVK | 2.6
147 | FHEVGTEMIITKAIRRMFPSYKVK | 1.66
148 | FHEVGTEMIITKAVRRMFPSYKVK | 1.62
149 | FHEVGTEMIITKAKRRMFPSYKVK | 1.68
150 | FHEVGTEMIITKASRRMFPSYKVK | 1.83
151 | FHEVGTEMIITKALRRMFPSYKVK | 1.71
152 | FHEVGTEMIITKANRRMFPSYKVK | 2.04
153 | FHEVGTEMIITKAMRRMFPSYKVK | 1.49
154 | FHEVGTEMIKTKAGRRMFPSYKVK | 2.84
155 | FHEVGTEMIVTKAGRRMFPSYKVK | 2.14
156 | FHEVGTEMISTKAGRRMFPSYKVK | 3.26
157 | FHEVGTEMINTKAGRRMFPSYKVK | 2.03
158 | FHEVGTEMIATKAGRRMFPSYKVK | 1.68
159 | FHEVGTEMITTKAGRRMFPSYKVK | 1.91
160 | FHEVGTEMIWTKAGRRMFPSYKVK | 1.76
161 | FHEVGTEMIETKAGRRMFPSYKVK | 2.66
162 | FHEVGTEMILTKAGRRMFPSYKVK | 2.21
163 | FHEVGTEMIRTKAGRRMFPSYKVK | 2.21
164 | FHEVGTEMIMTKAGRRMFPSYKVK | 1.63
165 | FHEVGTEMIQTKAGRRMFPSYKVK | 2.45
166 | FHEVGTEMIPTKAGRRMFPSYKVK | 2.44
167 | FHEVGTEMIHTKAGRRMFPSYKVK | 2.25
168 | FHEVGTEMIYTKAGRRMFPSYKVK | 1.48

Row | Variant | protein stability index
169 | FHEVGTEMIDTKAGRRMFPSYKVK | 3.5
170 | FHEVGTEMICTKAGRRMFPSYKVK | 2.41
171 | FHEVGTEMIFTKAGRRMFPSYKVK | 3.28
172 | FHEVGTEMMITKAGRRMFPSYKVK | 2.19
173 | FHEVGTEMQITKAGRRMFPSYKVK | 2.5
174 | FHEVGTEMVITKAGRRMFPSYKVK | 3.05
175 | FHEVGTEMRITKAGRRMFPSYKVK | 2.68
176 | FHEVGTEMTITKAGRRMFPSYKVK | 2.84
177 | FHEVGTEMPITKAGRRMFPSYKVK | 2.75
178 | FHEVGTEMFITKAGRRMFPSYKVK | 2.52
179 | FHEVGTEMEITKAGRRMFPSYKVK | 3.06
180 | FHEVGTEMNITKAGRRMFPSYKVK | 2.46
181 | FHEVGTEMLITKAGRRMFPSYKVK | 1.79
182 | FHEVGTEMSITKAGRRMFPSYKVK | 2.29
183 | FHEVGTEMGITKAGRRMFPSYKVK | 2
184 | FHEVGTEMYITKAGRRMFPSYKVK | 1.8
185 | FHEVGTEMAITKAGRRMFPSYKVK | 2.38
186 | FHEVGTEMCITKAGRRMFPSYKVK | 1.5
187 | FHEVGTEMDITKAGRRMFPSYKVK | 2.38
188 | FHEVGTEMKITKAGRRMFPSYKVK | 2.48
